Laboratory results from article PMC11167270 (Heliyon, 2024).

How the values were obtained:
[1] = biological target: Sac10b2 (Sulfolobus acidocaldarius); experiment: AUC
[2] = biological target: the molecule itself; experiment: AUC

Row | Molecule | stoichiometry N [2] | other results
1 | Sac10b2 (natural protein) | – | stoichiometry N [1]: 2
2 | Sac10b1 (natural protein, Sulfolobus acidocaldarius) MSSGATPSNVVLVGKKPVMNYVLAALTLLNQGVSEITIKARGRAISKAVDTVEIVRNRFLPDKIEVKEIRIGSQVVTSQDGRQSRVSTIEIGIRKKA | 2 | –
3 | Sac10b1 R58A (natural protein, Sulfolobus acidocaldarius) MSSGATPSNVVLVGKKPVMNYVLAALTLLNQGVSEITIKARGRAISKAVDTVEIVRNAFLPDKIEVKEIRIGSQVVTSQDGRQSRVSTIEIGIRKKA | – | binding result [2]: binds
4 | Sac10b1 F59A (natural protein, Sulfolobus acidocaldarius) MSSGATPSNVVLVGKKPVMNYVLAALTLLNQGVSEITIKARGRAISKAVDTVEIVRNRALPDKIEVKEIRIGSQVVTSQDGRQSRVSTIEIGIRKKA | 2 | –
